{
  "source": "patent US20140322196A1",
  "about": "(priority 2011, published 2014)",
  "test_system": "A/Parma/24/09 (Brisbane-like) (oseltamivir-resistant) H1N1",
  "type": "cell-based, Influenza A virus",
  "conditions": "A/Parma/24/09 H1N1",
  "data": [
    {"molecule": "bLf: Lactoferrin from bovine milk, purchased from Morinaga Milk Industries, deprived of endotoxin (protein, UniProt P24627 20-708, looked up) Lactotransferrin: APRKNVRWCTISQPEWFKCRRWQWRMKKLGAPSITCVRRAFALECIRAIAEKKADAVTLDGGMVFEAGRDPYKLRPVAAEIYGTKESPQTHYYAVAVVKKGSNFQLDQLQGRKSCHTGLGRSAGWIIPMGILRPYLSWTESLEPLQGAVAKFFSASCVPCIDRQAYPNLCQLCKGEGENQCACSSREPYFGYSGAFKCLQDGAGDVAFVKETTVFENLPEKADRDQYELLCLNNSRAPVDAFKECHLAQVPSHAVVARSVDGKEDLIWKLLSKAQEKFGKNKSRSFQLFGSPPGQRDLLFKDSALGFLRIPSKVDSALYLGSRYLTTLKNLRETAEEVKARYTRVVWCAVGPEEQKKCQQWSQQSGQNVTCATASTTDDCIVLVLKGEADALNLDGGYIYTAGKCGLVPVLAENRKSSKHSSLDCVLRPTEGYLAVAVVKKANEGLTWNSLKDKKSCHTAVDRTAGWNIPMGLIVNQTGSCAFDEFFSQSCAPGADPKSRLCALCAGDDQGLDKCVPNSKEKYYGYTGAFRCLAEDVGDVAFVKNDTVWENTNGESTADWAKNLNREDFRLLCLDGTRKPVTEAQSCHLAVAPNHAVVSRSDRAAHVKQVLLHQQALFGKNGKNCPDKFCLFKSETKNLLFNDNTECLAKLGGRPTYEEYLGTEYVTAIANLKKCSTSPLLEACAFLTR", "values": [
      {"measurement": "HI titre", "value": 6, "unit": "nM"}
    ]}
  ]
}
